This is an account of results in patent publication US20200247894A1 (Regeneron, published 2020).

For orientation: Kd means the free concentration of one partner at which half of the binding sites on the other are occupied at equilibrium, for simple one-to-one binding. Low readings indicate higher affinity, high ones lower affinity. The koff is a measure of how fast the partners let go of each other. A higher koff goes with fast dissociation. Usually kon stands for the rate constant with which the complex forms. A high value points to faster complex formation.

For experiment [1], the target named is T1, Rat IL2Rγ extracellular domain expressed with a C-terminal myc-myc-hexahistidine tag (rat).
T1 construct: whole entry is the tagged construct; also called rIL-2Rg-MMH; rat IL-2Rg-MMH
T1 chain: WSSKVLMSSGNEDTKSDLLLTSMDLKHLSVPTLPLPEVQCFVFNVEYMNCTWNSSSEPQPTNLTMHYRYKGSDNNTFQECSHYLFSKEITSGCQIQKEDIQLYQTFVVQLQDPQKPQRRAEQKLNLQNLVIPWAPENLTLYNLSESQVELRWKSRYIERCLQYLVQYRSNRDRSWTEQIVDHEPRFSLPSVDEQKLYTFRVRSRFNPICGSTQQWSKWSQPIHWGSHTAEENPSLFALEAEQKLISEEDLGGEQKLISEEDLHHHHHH
As to the kind of experiment: SPR Biacore 4000, anti-hFc-captured mAb, 37 C. The protocol:
(§1) Equilibrium dissociation constants (KD values) for IL-2Rγ binding to purified anti-IL2Rγ monoclonal antibodies were determined using a Biacore 4000 instrument equipped with a real-time surface plasmon resonance biosensor. All binding studies were performed in 10 mM HEPES, 150 mM NaCl, 3 mM EDTA, and 0.05% v/v Surfactant Tween-20, pH 7.4 (HBS-ET) running buffer at 25° C. and 37° C. The Biacore sensor surface was first derivatized by amine coupling with a monoclonal mouse anti-human Fc antibody (GE, # BR-1008-39) to capture anti-IL2Rγ monoclonal antibodies.
(§2) The dissociation of monoclonal antibody bound IL2Rγ reagents were monitored for 8-10 minutes in HBS-ET running buffer. Kinetic association (kₐ) and dissociation (kd) rate constants were determined by fitting the real-time sensorgrams to a 1:1 binding model using Scrubber 2.0c curve fitting software. Binding dissociation equilibrium constants (KD) and dissociative half-lives (t_{1/2}) were calculated from the kinetic rate constants as: […]
(In general: In SPR one partner is held on a chip, and binding of the other changes the refractive index at the surface.)

The target in experiment [2] is T2, Mouse IL2Rγ extracellular domain expressed with a C-terminal myc-myc-hexahistidine tag (mouse).
T2 construct: whole entry is the tagged construct; also called mIL-2Rg-MMH
T2 chain: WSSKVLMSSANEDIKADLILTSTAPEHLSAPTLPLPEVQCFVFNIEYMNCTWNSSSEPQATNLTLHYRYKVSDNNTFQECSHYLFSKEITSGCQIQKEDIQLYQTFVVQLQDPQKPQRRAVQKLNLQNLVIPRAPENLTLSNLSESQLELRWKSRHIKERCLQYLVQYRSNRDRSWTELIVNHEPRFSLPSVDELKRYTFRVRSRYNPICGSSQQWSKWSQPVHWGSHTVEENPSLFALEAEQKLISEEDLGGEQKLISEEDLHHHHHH
The experiment can be described thus: SPR Biacore 4000, anti-hFc-captured mAb, 37 C. As for the experimental part: as §1, §2

The target in experiment [3] is T3, Macaca fascicularis IL2Rγ extracellular domain expressed with a C-terminal myc-myc-hexahistidine tag (Macaca fascicularis).
T3 construct: whole entry is the tagged construct; also called mfIL-2Rg-MMH
T3 chain: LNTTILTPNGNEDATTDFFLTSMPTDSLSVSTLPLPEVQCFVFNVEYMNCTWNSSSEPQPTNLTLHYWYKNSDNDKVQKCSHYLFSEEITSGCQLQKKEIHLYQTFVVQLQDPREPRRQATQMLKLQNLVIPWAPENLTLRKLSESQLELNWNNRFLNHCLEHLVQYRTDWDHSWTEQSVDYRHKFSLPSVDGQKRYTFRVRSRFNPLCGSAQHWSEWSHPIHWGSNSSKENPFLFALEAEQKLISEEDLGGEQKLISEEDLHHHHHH
The experiment can be described thus: SPR Biacore 4000, anti-hFc-captured mAb, 37 C. The protocol: as §1, §2

Experiment [4] addresses T1, Rat IL2Rγ extracellular domain …. As to the kind of experiment: SPR Biacore 4000, anti-hFc-captured mAb, 25 C. The protocol:
as §1, §2

Experiment [5] addresses T2, Mouse IL2Rγ extracellular domain …. The experiment can be described thus: SPR Biacore 4000, anti-hFc-captured mAb, 25 C. The protocol: as §1, §2
The target of experiment [6] is T4, mouse IL-2Rγ endogenously expressed on MC/9 cells (mouse, UniProt P34902 23-369).
T4 construct: whole, on cells
T4 sequence (looked up): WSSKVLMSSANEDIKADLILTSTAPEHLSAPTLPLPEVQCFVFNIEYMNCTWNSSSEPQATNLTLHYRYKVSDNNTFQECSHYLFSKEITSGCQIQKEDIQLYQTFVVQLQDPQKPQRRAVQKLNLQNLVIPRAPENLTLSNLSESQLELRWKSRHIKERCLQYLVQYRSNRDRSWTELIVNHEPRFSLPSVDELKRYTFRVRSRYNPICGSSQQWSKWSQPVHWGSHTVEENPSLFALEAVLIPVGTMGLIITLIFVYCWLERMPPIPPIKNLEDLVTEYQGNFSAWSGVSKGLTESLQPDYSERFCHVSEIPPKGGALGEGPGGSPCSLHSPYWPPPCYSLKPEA
As to the kind of experiment: flow cytometry, 10 ug/ml antibody, MC/9 cells (endogenous mouse IL-2Rg). The protocol:
For flow cytometry analyses, the cells were pre-incubated with mouse IgG at 100 μg/ml for 15 minutes at room temperature (RT) to block the binding of the antibodies to Fc receptors. […] Cells were washed, fixed using BD CytoFix™ (BD biosciences, #554655) and analyzed on an IQue® (Intellicyt®) Flow Cytometer or Accuri Flow cytometer (BD). […] The results were analyzed using ForeCyt® (IntelliCyt®) software to determine the geometric means of fluorescence (MFI) for viable cells. Binding ratios were calculated by normalizing the MFI of the test sample by the MFI of the unstained sample.

B1: H4H12859P (antibody, human IgG4 S228P, kappa, V domains shown)
VH: QVQLVQSGAEVKKPGASVRVSCKASGYTFTDYDIHWVRQAPGHGLEWMGWINPNSGGTNYAQKFQGRVTMTRDTSISTVYMDLSRLRSDDTAVYYCARADYSSSYYYYGMDVWGQGTTVTVSS
VL: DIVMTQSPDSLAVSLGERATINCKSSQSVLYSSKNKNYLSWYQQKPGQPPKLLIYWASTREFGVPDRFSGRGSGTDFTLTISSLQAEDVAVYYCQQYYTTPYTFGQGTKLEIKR
notes: fully human anti-IL2Rgamma mAb, human IgG4 Fc
Turning to B1, the “100 nM Ag Bound” value in experiment [1] turned out to be 1 RU. Besides, in experiment [2], the “100 nM Ag Bound” value worked out at 0 RU. Besides, in experiment [3], the “100 nM Ag Bound” value is 10 RU; the affinity, expressed as Kd, was 320 nM; the off-rate constant (koff) was 0.0201 s⁻¹; the on-rate (kon) worked out at 62800 M⁻¹ s⁻¹. This molecule also had a t1/2 in experiment [3] of 0.6 min. Further, in experiment [4], the “100 nM Ag Bound” value was 2 RU and the binding result is “no binding (tested: 100 nM)”. In experiment [5], the “100 nM Ag Bound” value turned out to be 2 RU and the binding result was “no binding (tested: 100 nM)”.

B2: H4H12899P (antibody, human IgG4 S228P, kappa, V domains shown)
VH: QVQLVESGGDLVKPGGSLRLSCATSGFTFSDFYMTWIRQAPGKGLEWISYISNSGSIVKYADSVKGRFTISRDNAKNSLYLQMNSLRAEDTAIYYCARFYGDRWGQGTLVTVSS
VL: DIQLTQSPSFLSASVGDRVTITCWASQGISTFLAWYQQKPGKAPKLLIYAASTLQSGVPSRFSGSGSGTDFTLTISSLQPEDFATYHCQQLNNYPWTFGQGTKVEIKR
notes: as for B1
For the molecule B2, in experiment [1], the “100 nM Ag Bound” value worked out at 16 RU, the dissociation constant (Kd) was determined as 51.6 nM, the koff is 0.00753 s⁻¹ and the kon was 146000 M⁻¹ s⁻¹. The molecule further displayed a t1/2 in experiment [1] of 1.5 min. Also, in experiment [2], the “100 nM Ag Bound” value was found to be 19 RU, the Kd is 55.9 nM, the koff came out at 0.0108 s⁻¹ and the kon worked out at 193000 M⁻¹ s⁻¹. The molecule also gave a t1/2 in experiment [2] of 1.1 min. Further, in experiment [3], the “100 nM Ag Bound” value was 31 RU; the affinity, expressed as Kd, was 6.71 nM; the off-rate (koff) came to 0.00216 s⁻¹; the association rate constant (kon) was determined as 322000 M⁻¹ s⁻¹. This molecule had a t1/2 in experiment [3] of 5 min. Moreover, in experiment [4], the “100 nM Ag Bound” value is 39 RU, the Kd came out at 21.7 nM, the off-rate (koff) was 0.00153 s⁻¹ and the kon was 70400 M⁻¹ s⁻¹. The same molecule had a t1/2 in experiment [4] of 8 min. In experiment [5], the “100 nM Ag Bound” value was 51 RU, the dissociation constant (Kd) was found to be 18.4 nM, the koff came to 0.00167 s⁻¹ and the kon is 90600 M⁻¹ s⁻¹. Moreover, the t1/2 in experiment [5] is 7 min.

B3: H4H12900P (antibody, human IgG4 S228P, kappa, V domains shown)
VH: QVQLVESGGGLVKPGGSLRLSCEASGFTFNDFYMTWIRQAPGKGLEWIAYISKSGDKMRYADSVKGRFSTSRDNAKNSLSLQMNSLRAEDTAVYYCARFYGDIWGQGTLVTVSS
VL: DIQLTQSPSFLSASVGDRVTITCWASQDISSFLVWYQQKPGKAPNLLIYAASALQSGVPSRFSGSGSGTEFTLTISSLQPEDFASYYCEQLNNYPWTFGQGTKVEIKR
notes: as for B1
With B3, in experiment [1], the “100 nM Ag Bound” value is 27 RU, the Kd was 8.7 nM, the koff was 0.00363 s⁻¹ and the on-rate constant (kon) stood at 417000 M⁻¹ s⁻¹. This molecule gave a t1/2 in experiment [1] of 3.2 min. Moreover, in experiment [2], the “100 nM Ag Bound” value was 32 RU, the Kd is 6.11 nM, the koff amounted to 0.00317 s⁻¹ and the association rate constant (kon) is 519000 M⁻¹ s⁻¹. The molecule further displayed a t1/2 in experiment [2] of 4 min. In experiment [3], the “100 nM Ag Bound” value amounted to 38 RU, the dissociation constant Kd amounted to 3.18 nM, the koff was found to be 0.00154 s⁻¹ and the on-rate (kon) turned out to be 483000 M⁻¹ s⁻¹. The t1/2 in experiment [3] is 8 min. Moreover, in experiment [4], the “100 nM Ag Bound” value was found to be 57 RU; the affinity, expressed as Kd, was 6.02 nM; the koff was determined as 0.000619 s⁻¹; the kon is 103000 M⁻¹ s⁻¹. The molecule further came in with a t1/2 in experiment [4] of 19 min. Besides, in experiment [5], the “100 nM Ag Bound” value was 76 RU, binding was put at a Kd of 3.76 nM, the koff amounted to 0.000467 s⁻¹ and the kon is 124000 M⁻¹ s⁻¹. Moreover, in experiment [5], the t1/2 worked out at 25 min.

B4: H4H12927P2 (antibody, human IgG4 S228P, kappa, V domains shown)
VH: EVQLVESGGGVVRPGGSLRLSCATSGFTFDDYGMSWVRQVPGKGLEWVSSVNRNGGTTDYADSVKGRFTISRDNAKRSLFLQMNSLRAEDTALYHCATGELFFDYWGQGTLVTVSS
VL: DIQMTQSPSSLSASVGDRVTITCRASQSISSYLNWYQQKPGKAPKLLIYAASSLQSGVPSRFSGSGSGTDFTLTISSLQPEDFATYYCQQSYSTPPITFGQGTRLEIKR
notes: as for B1
With B4, the “100 nM Ag Bound” value in experiment [1] was determined as 1 RU; in experiment [2] it was 1 RU; in experiment [4], 2 RU; in experiment [5] it was 1 RU. Further, the binding result in experiment [4] and in experiment [5] was “no binding (tested: 100 nM)” each time.

B5: H4H12857P (antibody, human IgG4 S228P, kappa, V domains shown)
VH: EVQLVESGGGVVRPGGSLRLSCAASGFTFDDFDMSWVRQGPGKGLEWVSGINWHGSSTGYADSVKGRFTISRDNAKNSLYLQMSSLRAEDTALYHCVRGGTIVGATTPLDYWGQGTLVTVSS
VL: DIQMTQSPSSLSASVGDRVTMTCRASRTISSYLSWYQQKSGKVPNLLIFGASSLQSGVPSRFSASGSGTDFTLIISSLQPEDFATYYCQQSYSSPLTFGGGTKVEIKR
notes: fully human anti-IL2Rgamma mAb, human IgG4 Fc; also called REGN9432
As for B5, the “100 nM Ag Bound” value in experiment [1] was determined as 1 RU; in experiment [2] it was 1 RU; in experiment [4], 1 RU; in experiment [5], 5 RU. The binding result in experiment [4] and in experiment [5] was “no binding (tested: 100 nM)” each time.

B6: H4H12857P (antibody, human IgG4 S228P, kappa, V domains shown)
VH: EVQLVESGGGVVRPGGSLRLSCAASGFTFDDFDMSWVRQGPGKGLEWVSGINWHGSSTGYADSVKGRFTISRDNAKNSLYLQMSSLRAEDTALYHCVRGGTIVGATTPLDYWGQGTLVTVSS
VL: DIQMTQSPSSLSASVGDRVTMTCRASRTISSYLSWYQQKSGKVPNLLIFGASSLQSGVPSRFSASGSGTDFTLIISSLQPEDFATYYCQQSYSSPLTFGGGTKVEIKR
notes: fully human anti-IL2Rg antibody, human IgG4; also called REGN9432
Take B6: in experiment [6], the “Binding Ratio (Sample over unstained MFIs)” value stood at 1 and the “Raw MFI” value is 198 MFI.

B7: H4H12890P (antibody, human IgG4 S228P, kappa, V domains shown)
VH: EVQLVESGGGLVQPGGSLRLSCAASGFTFNNYAMHWVRQAPGKGLEYVSSISSSGGSTYYEDSVKGRFTISRDNSKNTLYLQMGSLRAEDMAVYYCARSFYGSGTYYDTFDMWGQGTMVTVSS
VL: DIQMTQSPSSLSASIGDRVTITCRASQSISRYLNWYQQKPGKAPKLLIYAASSLQSGVPSRFSASGSGTDFTLTISSLQPEDFATYYCQQSYSTPFTFGQGTKLEIKR
notes: as for B1
With B7, in experiment [1], the “100 nM Ag Bound” value is 0 RU. Besides, the “100 nM Ag Bound” value in experiment [2] worked out at 1 RU. For the same molecule, in experiment [3], the “100 nM Ag Bound” value worked out at 20 RU, binding was put at a Kd of 14 nM, the off-rate constant (koff) stood at 0.00131 s⁻¹ and the kon is 93600 M⁻¹ s⁻¹. The molecule also had a t1/2 in experiment [3] of 9 min. Also, in experiment [4], the “100 nM Ag Bound” value amounted to 0 RU and the binding result is “no binding (tested: 100 nM)”. In addition, in experiment [5], the “100 nM Ag Bound” value is 1 RU and the binding result was “no binding (tested: 100 nM)”.
